In patent US20190338026A1 (University of Texas, published 2019):
Substitutions are numbered along the chain they refer to.

T1: human LAIR1 extracellular domain (ECD) protein with 6 HIS tag at the C-terminus (human, UniProt Q6GTX8 22-165)
T1 construct: Produced recombinantly in HEK293 cells; the whole entry is named here; also called LAIR1 ECD; LAIR1-ECD
T1 chain: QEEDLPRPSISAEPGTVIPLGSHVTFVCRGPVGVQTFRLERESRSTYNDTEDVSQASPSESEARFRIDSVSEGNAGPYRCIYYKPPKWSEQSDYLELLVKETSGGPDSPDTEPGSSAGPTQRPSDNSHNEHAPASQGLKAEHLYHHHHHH

T2: LAIR1 on LAIR1 reporter cells (human, UniProt Q6GTX8 22-165, limits assumed)
T2 chain: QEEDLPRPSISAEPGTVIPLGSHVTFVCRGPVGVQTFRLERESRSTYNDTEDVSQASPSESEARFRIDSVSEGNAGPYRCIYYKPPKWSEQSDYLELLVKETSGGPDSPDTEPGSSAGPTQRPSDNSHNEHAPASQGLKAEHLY

B1: LA-56 (antibody, V domains shown)
VH: SSSVEESGGRLVTPGTPLTLTCTVSGFSLSAYWVGWVRQAPGKGLEYIGFVDVDIYYASWARGRFTISKTSSTTVDLILTSPTMEDTATYFCVRMSYNAMDLWGPGTLVTISS
VL: ELDLTQTASSVSAAVGDTVTINCQSSESVYKDNFLSWYQQKPGQPPKLLIYRASTLASGVPSRFKGSGSGSQFTLTISDVVCDDAATYYCSGYRNSHDGLPFGGGTEVEIK
notes: Rabbit monoclonal IgG; also called mAb LA-56
B2: LA-29 (antibody, V domains shown)
VH: SSSVEESGGGLVQPEGSLTLTCTASGFSFSSRYYMCWVRQAPGKGLEWIACIYNGDGSRYYASWAKGRFTISKTSSTTVTLQMTSLTAADTATYFCVRDRHTAFVDYGDDNLWGPGTLVTVSS
VL: ELDLTQTPASVSEPVGGTVTIKCQASQSIYSNLAWYQQKPGQPPKLLIYRASTLASGVPSRFKGSGAGTEFTLTISDLECADAATYYCQCTYDGISYVPSSFGGGTEVVVK
notes: Rabbit monoclonal IgG; also called mAb LA-29
B3: LA-259-1 (antibody, V domains shown)
VH: QSVKESGGRLVTPGTPLTLTCTASGFSLYKYNIQWVRQAPGKGLEYIGASTYAGYTYYASWAKGRVTISRTSTTVDLKMTSPTTEDTATYFCARHIDGDYSGYALWGPGTLVTISS
VL: ELVLTQTPASVSAAVGGTVTIKCQASQSIGTWFAWYQQKPGQSPKLLIYGPSKLASGVPPRFKGSGSGTEFTLTISDLECADAATYYCQSTYFGVDYLGGTFGGGTEVVVK
notes: Rabbit monoclonal IgG
B4: LA-142-2 (antibody, V domains shown)
VH: B3 VH with Q1A, S2A, I114V
VL: ELVLTQTPASVSAAVGGTVTIKCQASQSIGTWFAWYQQKPGQSPKLLIYGASNLASGVSSRFKGIRSGTEYTLTISDLECADAATYYCQCSDVGNTYGAAFGGGTEVEIN
notes: Rabbit monoclonal IgG
B5: LA-142-1 (antibody, V domains shown)
VH: B3 VH with Q1A, S2A, I114V
VL: B3 VL with V109E, V110I
notes: Rabbit monoclonal IgG
B6: LA-6 (antibody, V domains shown)
VH: EQSVEESGGDLVKPEGSLTLTCTASGFSFSSGYYMCWVRQAPGKGLEWIGCIHSSSGNIYYASWAKGRFTISKTSSTTVDLQLTSLTAADTATYFCARDSEVYGWNPNDLWGPGTLVTVSS
VL: ELDMTQTPASVSEPVGGTVTIKCQASQSISSYLAWYQQKPGQRPKLLIYGASNLASGVSSRFKGSRSGTQFTLTITDLECDDAATYYCQCSYYGNSYVGGAFGGGTEVVVK
notes: Rabbit monoclonal IgG; also called mAb LA-6
B7: LA-199 (antibody, V domains shown)
VH: EQSVEESGGRLVTPGTPLTLTCTASGFSLSSYAMIWVRQAPGEGLEWIGDIYAGGGATYYASWAKGRFTISKTSTTVDLKITSPTTEDTATYFCARAYGSGYDLWGPGTLVTVSS
VL: ELDLTQTPASVEVAVGGTVTIKCQASQSISSYLSWYQQKPGQPPKLLIYYASTMASGVPSRFSGSGSGTQFTLTISDLECADAATYYCQQGDSRSNVDNIFGGGTEVVVK
notes: Rabbit monoclonal IgG
B8: LA-111 (antibody, V domains shown)
VH: EQSVEESGGGLVAPGGSLTLTCTVSGFSLSNYHMGWVRQAPGKGLEWIGYIYTHGTTFYASWAKGRFTISKTSTTVDLKMTRLTTGDTATYFCARGGYADYNILYNLWGPGTLVTISS
VL: ELVLTQTPASVEAAVGGTVTINCQASQSISSYLAWYQQKPGQPPKLLIYDASDLASGVPSRFKGSRSGTEFTFTISDLECADAATYYCQTYDSSTTAAFGGGTEVEIK
notes: Rabbit monoclonal IgG
B9: LA-82 (antibody, V domains shown)
VH: EQSLEESGGDLVKPGASLTLACTASGFSFSDGYYMCWVRQAPGKGLEWIGCIHSSSGSIYYASWAKGRFTISKTSSTMVTLQMSSLTAADTATYFCARDSESYGYNPCELWGPGTLVTISS
VL: ELVMTQTPASVSEAVGGTVTIKCQASQTISNYLAWYQQKPGQRPKLLIYAASSLASGVSSRFRGSRSGTEYTLTITDLECDDAATYYCQCTYYGTTYIGGAFGGGTEVEIK
notes: Rabbit monoclonal IgG; also called mAb LA-82
B10: LA-89 (antibody, V domains shown)
VH: QSVKESGGRLVTPGTPLTLTCTVSGFSLSSNAISWVRQAPGKGLEWIGYIYGDGRTFYASWAKGRFTISKTSTTVDLKMTSLTSEDTATYFCIKSLHLWGPGTLVTISS
VL: ELDMTQTASPVSAAVGGTVTINCQSSQSVYNKNQLFWYQQKPGQPPKLLIYDASTLASGVPSRYKGSGSGTQFTLTISGVQCDDAATYYCLGEYTGNIYTFGEGTEVVVK
notes: Rabbit monoclonal IgG; also called mAb LA-89
B11: LA-141 (antibody, V domains shown)
VH: QSLEESGGRLVKPDESLTLTCTVSGFSLSSNAMSWVRQAPGKGLEWIGYIYGDGRTFYANWAKGRITISRTSTTVDLKMTSLRTEDTATYFCVKSLILWGPGTLVTISS
VL: B10 VL with A8P, Q27H, K32A, F36Y, Y64F, T95S, T100V, V108E, V109I, K110N
notes: Rabbit monoclonal IgG
B12: LA-171 (antibody, V domains shown)
VH: EQSVEESGGRLVTPGGSLTLTCTVSGFSLSSYNMGWVRQAPGKGLEYIGWISLGGNTYYASWVNGRFTISKTSTTVELKISSPTTEDTATYFCARGAGSLYYGDYYFTLWGPGTLVTISS
VL: ELVLTQTPSSVSAAVGGTVTIKCQASQSIYSNLAWYQQKPGQPPKLLIYKASNLASGVPSRFKGSGSGTEYTLTISDLECADAATYYCQNYYGINDYGAAFGGGTEVVVK
notes: Rabbit monoclonal IgG
B13: LA-245 (antibody, V domains shown)
VH: QSLQESRGRLVTPGTPLTLTCTASGFSLSSYHMGWVRQAPGKGLEWIGYIHTNRNTWYANWAKGRFTISKTSSTTVNLRMTSPTTEDTATYFCARGSYGDYNFLFDVWGPGTLVTVSS
VL: ELVMTQTPASVSEPVGGTVTINCQASEDISIYLAWYQQKPGQPPKLLIYDASTLESGVPSRFSGSGSRTQFTLTISDLECADAATYYCQQYSTTDTNNLFGGGTEVEIK
notes: Rabbit monoclonal IgG
B14: LA-60 (antibody, V domains shown)
VH: EQSLESGGGLVQPEGSLTLTCTASGFSFSNSYYMCWVRQAPGKGLEWIGCIYTGSSSGTYYASWAEGRFTISKTPSTTVTLQMTSLTAADTATYFCSRKLTNFNGAYLDLWGPGTLVTVSS
VL: ELVLTQTPASVEAAVGGTVTIKCQASQSIYSYLAWYQQKPGQPPKVLIYKASTLASGVPSRFKGSGSGTEFTLTISDLECADAATYYCQNNNGGSDNTFGGGTEVVVK
notes: Rabbit monoclonal IgG; also called mAb LA-60
B15: LA-145 (antibody, V domains shown)
VH: SSSVEESGGRLVTPGTPLTLTCTVSGFSLSSYVMGWVRQAPGKGLEWIGTISIRSNTYYASWAKGRFTISKTSTTVDLKITSPITEDTATYFCARGAGNVYYSDYYFSLWGPGTLVTISS
VL: ELVMTQPPASVSAAVGGTVTINCQASQNIYSNLAWYQQRPGQPPKLLIYKASTLASGVPSRFKGSGSGTDYTLTITDLECADAATYYCQTYYNMMDDGAAFGGGTEVEIK
notes: Rabbit monoclonal IgG
B16: LA-61 (antibody, V domains shown)
VH: EQLMEESGGRLVTPGTPLTLTCTASGFDVNAYHMGWVRQAPGKGLEWIGYIYSGGTIFYANWAKGRFTLSRTSTTVDLKITSPTTEDTATYFCARGGYDNYNILYDLWGPGTLVTISS
VL: ELDMTQTPASVSEPVGGTVTIKCQASQSISVYLAWYQQKPGQPPKLLIYDASTLTSGVPSRFKGSGSGTEFTLTISDLECADAAAYYCQSYDGTPTAAFGGGTEVVVK
notes: Rabbit monoclonal IgG; also called mAb LA-61
B17: LA-258-1 (antibody, V domains shown)
VH: QSVKESGGDLVKPEGSLTLTCKASGFSFSNSYYMCWVRQAPGKGLEWIACIYTGSTSGTYYASWVNGRFTISKTPSTTVTLQMTSLTVADTATYFCSRKLTNFNGAYLDLWGPGTLVTISS
VL: ELVLTQTPASVEAAVGGTVTINCQASQSISNLLAWYQQKPGQRPKLLIYRASTLASGVSSRFKGSGSGTEYTLTISGVQCDDAATYYCQQGYTSNNVDNAFGGGTEVEIK
notes: Rabbit monoclonal IgG

Biological target: T1, human LAIR1 extracellular domain (ECD) …
Test: ELISA, LAIR1 ECD coated
Procedure: (§1) The inventors then used a concentration titration (0-10 μg/ml) by ELISA to determine the LAIR1 monoclonal antibody (mAbs) binding to human LAIR1 ECD. […] For FIGS. 2-39, X axis indicates the antibody concentrations and Y-axis is binding signals, measured as OD (450 nm). To perform the ELISA assay, LAIR1 ECD recombinant protein was coated on high absorption 96-well plates. Serial diluted (3-fold) LAIR1 mAb was added to the coated/blocked plates and detected using goat anti-rabbit F(ab′)2 conjugated HRP as secondary antibody. All assays were repeated 3 times and the titration curves were fitted using 4-parameter fitting curve using the GraphPad software for EC₅₀ estimation.
(§2) Serial dilutions of the LAIR1 monoclonal antibodies (IgGs or scFvs fragments), starting from […] and 3-fold titration down for 12 steps, were added to the 96-well plate for binding by incubating 45 minutes at 37° C. with a cover on the assay plate. Then the plates were washed with PBS containing Tween 20 (0.05% concentration) for 3 times and PBS one time. […] Detection was conducted by adding HRP substrate, TMB (ThermoFisher) for 10 minutes, and stopped by adding 50 μl/well of 2N H2504. The plates were read for absorbance at 450 nm using a plate reader (SpectraMax M4, Molecular Devices). Data were collected and graphed using a 4-parameter fitting curve with GrapPad Prism 7 software for EC₅₀ calculation.

EC50 (read off the curve) [ng/mL] | Binder
~7 | B1
~10 | B2
~30 | B3
~40 | B4
~40 | B5
~10 | B6
~20 | B7
~10 | B8
~10 | B9
~10 | B10
~10 | B11
~10 | B12
~10 | B13
~10 | B14
~10 | B15
~20 | B16

Biological target: T2, LAIR1 on LAIR1 reporter cells
Test: cell-based or functional assay

GFP+% of LAIR1 reporter cells, collagen I coated, soluble Ab [%] | Binder
1.1 | B9
6.5 | B14

Biological target: T1, human LAIR1 extracellular domain (ECD) …
Test: ELISA, LAIR1 ECD coated, mAb titrated, anti-rabbit HRP
Procedure: as §1, §2

EC50 [nM] | Binder
0.05 | B1
0.02 | B2
0.23 | B3
0.28 | B4
0.25 | B5
0.07 | B6
0.16 | B7
4.21 | B17
0.09 | B8
0.1 | B9
0.08 | B10
0.05 | B11
0.09 | B12
0.09 | B13
0.1 | B14
0.08 | B15
0.05 | B16
